Results on six molecules are retold here after patent US20150010586A1 (ACADEMISCH ZIEKENHUIS LEIDEN H O D N LUMC, published 2015).

What all share (test): cellular competition assay vs FL-labelled reference peptide on B cells; affinity category (high/good IC50<5 uM, intermediate 5-15 uM, low >15-50 uM)
In assay [1] the target is T1, HLA-A*0301 (human).
T1 construct: whole, on cells; Class I molecule on intact B cells (EKR); also called A3

The target of assay [2] is T2, HLA-A*0101 (human).
T2 construct: whole, on cells; also called A1

Assay [3] concerns the target T3, HLA-A*1101 (human).
T3 construct: whole, on cells; Class I molecule on intact B cells (BVR)

With GGSRAHSSHLK (also called A3 (360-370)) [p53 360-370 GGSRAHSSHLK], the IC50 in assay [1] lay in the range of 5 to 15 µM. With YLDDRNTFRH (also called A1 (205-214)) [p53 205-214 YLDDRNTFRH], the IC50 in assay [2] lay in the range of 5 to 15 µM. Take RVRAMAIY (also called A3 (156-163)) [p53 156-163 RVRAMAIY]: in assay [1], the IC50 was in the range of 5 to 15 µM. Turning to GQSTSRHKK (also called A11 (374-382)) [p53 374-382 GQSTSRHKK], the IC50 in assay [3] lay in the range of 5 to 15 µM.

Turning to GTAKSVTCTY (also called A1 (117-126); A3 (117-126)) [p53 117-126 GTAKSVTCTY], the IC50 in assay [1] and in assay [2] was 5 to 15 µM throughout.

Consider CTTIHYNY (also called A1 (229-236)) [p53 229-236 CTTIHYNY], for which, in assay [2], the IC50 fell in the range of 5 to 15 µM.
